One data set concerns the target T1, rat ADPRibase-Mn (Rattus norvegicus, UniProt Q5M886).
T1 construct: gene Adprm
T1 sequence (Q5M886 1-337): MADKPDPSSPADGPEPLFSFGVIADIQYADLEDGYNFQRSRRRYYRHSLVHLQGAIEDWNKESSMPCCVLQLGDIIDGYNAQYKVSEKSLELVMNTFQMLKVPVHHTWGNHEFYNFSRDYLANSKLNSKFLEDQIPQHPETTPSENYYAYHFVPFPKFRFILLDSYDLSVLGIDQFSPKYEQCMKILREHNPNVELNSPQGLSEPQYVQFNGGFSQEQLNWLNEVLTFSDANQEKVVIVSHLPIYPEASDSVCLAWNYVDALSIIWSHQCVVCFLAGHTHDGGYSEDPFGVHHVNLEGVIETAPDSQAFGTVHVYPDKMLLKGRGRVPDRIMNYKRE
Put plainly: hydrolysis assay. The following applies: behaves as with the zebrafish enzyme; no number given. Format: biochemical.

Substrate in data set [1]: NCCOP(=O)(O)OP(=O)(O)OC[C@H]1O[C@@H](n2ccc(N)nc2=O)[C@H](O)[C@@H]1O
Put plainly: phosphate release coupled to alkaline phosphatase; Michaelis-Menten fit. Format: biochemical, Danio rerio. Particulars: 5 mM MnCl2, 50 mM Tris-HCl pH 7.5. From the text: (§1) phosphate release coupled to alkaline phosphatase; Michaelis-Menten fit on zebrafish ADPRibase-Mn

Substrate in data set [2]: Nc1ncnc2c1ncn2[C@@H]1O[C@H](CO)[C@H]2OP(=O)(O)O[C@H]21
The description is as above. Format: biochemical, Danio rerio. The following applies: 5 mM MnCl2, 50 mM Tris-HCl pH 7.5, total activity (P-O2′ plus P-O3′ hydrolysis).
Source text: as §1

Substrate in data set [3]: Nc1ccn([C@@H]2O[C@H](COP(=O)(O)OP(=O)(O)OC[C@H](O)CO)[C@@H](O)[C@H]2O)c(=O)n1
Described as above. Format: biochemical, Danio rerio. Particulars: 5 mM MnCl2, 50 mM Tris-HCl pH 7.5.
Source text: as §1

Substrate in data set [4]: C[N+](C)(C)CCOP(=O)(O)OP(=O)([O-])OC[C@H]1O[C@@H](n2ccc(N)nc2=O)[C@H](O)[C@@H]1O
The data set is described as above. It is filed as biochemical, Danio rerio. The following applies: 5 mM MnCl2, 50 mM Tris-HCl pH 7.5.
Source text: as §1

Substrate in data set [5]: Nc1ncnc2c1ncn2[C@@H]1O[C@H](COP(=O)(O)OP(=O)(O)O)[C@@H](O)[C@H]1O
Described as above. It is filed as biochemical, Danio rerio. The following applies: 5 mM MnCl2, 50 mM Tris-HCl pH 7.5.
Source text: as §1

Substrate in data set [6]: N=c1c2ncn3c2ncn1[C@@H]1O[C@H](COP(=O)(O)OP(=O)(O)OC[C@H]2O[C@@H]3[C@H](O)[C@@H]2O)[C@@H](O)[C@H]1O
Put plainly: estimated from inhibition of ADP-ribose hydrolysis by cADPR (equation II). It is filed as biochemical, Danio rerio. The following applies: competitive inhibition assumed, Ki taken as Km; 160 µM cADPR against 80 µM ADP-ribose. The text has this:
estimated from inhibition of ADP-ribose hydrolysis by cADPR (equation II) on zebrafish ADPRibase-Mn

Results on three molecules are retold here after article PMC3407115, “Characterization of Danio rerio Mn^2+-Dependent ADP-Ribose/CDP-Alcohol Diphosphatase, the Structural Prototype of the ADPRibase-Mn-Like Protein Family” (PLoS ONE, 2012).

Positions count from the first letter of the chain named. Numbers in names are those of the source.

For `Nc1ncnc2c1ncn2[C@@H]1O[C@H](CO)[C@H]2OP(=O)(O)O[C@H]21` [2′,3′-cAMP], on rat ADPRibase-Mn, the hydrolysis assay result is “we did it now and found them to behave as with the zebrafish enzyme”.

B1: zebrafish ADPRibase-Mn (Danio rerio; M1S) (protein)
chain: SEDPVFTFGLIADVQYADIEDGENYLRTRRRYYRGSADLLRDAVLQWRRERVQCVVQLGDIIDGHNRRRDASDRALDTVMAELDACSVDVHHVWGNHEFYNFSRPSLLSSRLNSAQRTGTDTGSDLIGDDIYAYEFSPAPNFRFVLLDAYDLSVIGREEESEKHTHSWRILTQHNHNLQDLNLPPVSVGLEQRFVKFNGGFSEQQLQWLDAVLTLSDHKQERVLIFSHLPVHPCAADPICLAWNHEAVLSVLRSHQSVLCFIAGHDHDGGRCTDSSGAQHITLEGVIETPPHSHAFATAYLYEDRMVMKGRGRVEDLTITYS
notes: full-length ORF (BC054642 region 60-1028), N-terminal Met replaced by Ser; 8-His-MBP-TEV fusion expressed in E. coli BL21, tag cut with TEV protease
Take B1: the Km – broadly, the concentration of substrate that gives half-maximal velocity – in data set [1] was 3.9 ± 1.3 mM; in data set [2], 0.76 ± 0.05 mM; in data set [3], 2 ± 1.4 mM; in data set [4], 12 ± 3 mM; in data set [5], 2.65 ± 1.3 mM; in data set [6], 0.19 ± 0.025 mM. For the same molecule, the kcat (in general, the number of substrate molecules converted per active site and unit of time at saturation) in data set [1] was 125 s⁻¹; in data set [2], 16.9 s⁻¹; in data set [3], 95.6 s⁻¹; in data set [4], 67.2 s⁻¹; in data set [5] it was 1.8 s⁻¹; in data set [6], 0.005 s⁻¹. The kcat/Km (commonly the second-order rate constant that governs catalysis at low substrate concentration) was 32000 ± 300 M⁻¹ s⁻¹ in data set [1]; 22000 ± 3000 M⁻¹ s⁻¹ in data set [2]; 48000 ± 700 M⁻¹ s⁻¹ in data set [3]; 5600 ± 800 M⁻¹ s⁻¹ in data set [4]; 660 ± 70 M⁻¹ s⁻¹ in data set [5]; 28 ± 3 M⁻¹ s⁻¹ in data set [6].

B2: zebrafish ADPRibase-Mn (Danio rerio; H97A/M1S) (protein)
chain: B1 chain with H97A
notes: as for B1
As to B2, the Km in data set [1] was determined as 31 ± 0.8 mM; in data set [2] it was 1.7 ± 0.24 mM; in data set [3], 6.3 ± 0.9 mM; in data set [4] it was 43 ± 8 mM; in data set [5] it was 19 ± 0.7 mM. The kcat in data set [1] turned out to be 2.1 s⁻¹; in data set [2] it was 29.7 s⁻¹; in data set [3], 0.8 s⁻¹; in data set [4], 0.8 s⁻¹; in data set [5], 0.2 s⁻¹. Further, the kcat/Km was 70 ± 20 M⁻¹ s⁻¹ in data set [1]; 18000 ± 1000 M⁻¹ s⁻¹ in data set [2]; 120 ± 30 M⁻¹ s⁻¹ in data set [3]; 20 ± 5 M⁻¹ s⁻¹ in data set [4]; 11 ± 5 M⁻¹ s⁻¹ in data set [5].
